According to patent US20110250613A1, “Arrayed Multiple Ubiquitin Binding Domains as Linkage-specific Polyubiquitin Affinity Reagents” (THE JOHNS HOPKINS UNIVERSITY, priority 2009, published 2011):

How the values were obtained:
Conditions in all cases: free fluorescent UBA domain
K63-Ub2 = target: T1, K63-Ub2 (Homo sapiens, UniProt P0CG47, K63R); assay: Fluorescence anisotropy binding of fluorescent free UBA domains to K63-Ub2
T1 construct: Ub and K48- and K63-linked diUb and tetraUb were made as described; made in house
Description: (§1) Fluorescent Labeling. Ede1 UBA, hHR23A UBA1, Dsk2 UBA and Ddi1 UBA were produced as intein fusions and fluorescently labeled using expressed protein ligation as described in Scheibner et al., 2003. The dipeptide used for Ede1 labeling was Cys-Lys, with NHS-rhodamine (Pierce) coupled to the lysine amino group, and was a kind gift from Philip Cole (Johns Hopkins School of Medicine). MALDI mass spectroscopy confirmed the addition of the fluorescent dipeptide to the Ede1 UBA domain and that there was complete cleavage of the initiating methionine residue. hHR23A UBA1, Dsk2, and Ddi1 UBAs were labeled in a similar way, except that the dipeptide contained a fluorescein moiety instead of rhodamine. The fluorescein-labeled dipeptide was made as described in Scheibner et al., 2003. […]
(§2) Fluorescence Anisotropy Binding Assays. Fluorescence anisotropy measurements were performed as described (Sims and Cohen, 2009) using excitation and emission maxima of 492 nm/520 nm (fluorescein), 556 nm/569 nm (Alexa Fluor 546), or 555 nm/578 nm (rhodamine), in binding buffer at 25° C. The concentrations of the fluorescent proteins were calculated using published extinction coefficients (Invitrogen-Molecular Probes). polyUb concentrations were assessed from absorbance at 280 nm using the Ub extinction coefficient of 0.16 (mg per ml)^−1 cm^'1.49. […]

K63-Ub4 = target: T2, K63-Ub4 (Homo sapiens, UniProt P0CG47, K63R); assay: Fluorescence anisotropy binding of fluorescent free UBA domains to K63-Ub4
T2 construct: Ub and K48- and K63-linked diUb and tetraUb were made as described; made in house
Description: as §1, §2

K48-Ub4 = assay: Fluorescence anisotropy binding of fluorescent free UBA domains to K48-Ub4
Description: as §1, §2

K48-Ub2 = target: T3, K48-Ub2 (Homo sapiens, UniProt P0CG47, K48R); assay: Fluorescence anisotropy binding of fluorescent free UBA domains to K48-Ub2
T3 construct: Ub and K48- and K63-linked diUb and tetraUb were made as described; made in house
Description: as §1, §2

B1: Ede1 (protein, UniProt P34216 1-1381, looked up)
EH domain-containing and …: MASITFRTPLSSQEQAFYNQKFHQLDTEDLGVVTGEAVRPLFASSGLPGQLLSQVWATVDIDNKGFLNLNEFSAALRMIAQLQNAPNQPISAALYESTPTQLASFSINQNPAPMQSGSATGNTNNTDIPALSSNDIAKFSQLFDRTAKGAQTVAGDKAKDIFLKARLPNQTLGEIWALCDRDASGVLDKSEFIMAMYLIQLCMSHHPSMNTPPAVLPTQLWDSIRLEPVVVNQPNRTTPLSANSTGVSSLTRHSTISRLSTGAFSNAASDWSLSFEKKQQFDAIFDSLDKQHAGSLSSAVLVPFFLSSRLNQETLATIWDLADIHNNAEFTKLEFAIAMFLIQKKNAGVELPDVIPNELLQSPALGLYPPNPLPQQQSAPQIAIPSRASKPSLQDMPHQVSAPAVNTQPTVPQVLPQNSNNGSLNDLLALNPSFSSPSPTKAQTVVQNNTNNSFSYDNNNGQATLQQQQPQQPPPLTHSSSGLKKFTPTSNFGQSIIKEEPEEQEQLRESSDTFSAQPPPVPKHASSPVKRTASTTLPQVPNFSVFSMPAGAATSAATGAAVGAAVGAAALGASAFSRSSNNAFKNQDLFADGEASAQLSNATTEMANLSNQVNSLSKQASITNDKKSRATQELKRVTEMKNSIQIKLNNLRSTHDQNVKQTEQLEAQVLQVNKENETLAQQLAVSEANYHAAESKLNELTTDLQESQTKNAELKEQITNLNSMTASLQSQLNEKQQQVKQERSMVDVNSKQLELNQVTVANLQKEIDGLGEKISVYLTKQKELNDYQKTVEEQHAQLQAKYQDLSNKDTDLTDREKQLEERNRQIEEQENLYHQHVSKLQEMFDDLSQRKASFEKADQELKERNIEYANNVRELSERQMNLAMGQLPEDAKDIIAKSASNTDTTTKEATSRGNVHEDTVSKFVETTVENSNLNVNRVKDDEEKTERTESDVFDRDVPTLGSQSDSENANTNNGTQSGNETANPNLTETLSDRFDGDLNEYGIPRSQSLTSSVANNAPQSVRDDVELPETLEERDTINNTANRDNTGNLSHIPGEWEATPATASTDVLSNETTEVIEDGSTTKRANSNEDGESVSSIQESPKISAQPKAKTINEEFPPIQELHIDESDSSSSDDDEFEDTREIPSATVKTLQTPYNAQPTSSLEIHTEQVIKYPAPGTSPSHNEGNSKKASTNSILPVKDEFDDEFAGLEQAAVEEDNGADSESEFENVANAGSMEQFETIDHKDLDDELQMNAFTGTLTSSSNPTIPKPQVQQQSTSDPAQVSNDEWDEIFAGFGNSKAEPTKVATPSIPQQPIPLKNDPIVDASLSKGPIVNRGVATTPKSLAVEELSGMGFTEEEAHNALEKCNWDLEAATNFLLDSA
Kd (K63-Ub2): 120 µM | Kd (K63-Ub4): 54 µM | Kd (K48-Ub4): 31 µM | Kd (K48-Ub2): 86 µM
